Results: patent US20240254229A1 (Molecular Partners, published 2024)
Where “and” joins values, the source holds several entries; their conditions need not be identical. Identical values can stand only once. Blank lines part the entries; values can stand above or below the binder they belong to.

Columns and labels:
[1] = target: T1, hCD33 and hCD123 immobilized simultaneously on one switchSENSE chip (ratio 2:1, CD33:CD123) (human, UniProt P20138 18-259; P26951 19-305, limits assumed); test: switchSENSE, CD33 and CD123 on one chip; slow phase (avidity)
T1 construct: Not a complex: two separate ligands on one surface; used for avidity values and for off-rates; also called both ligands; both targets attached to the surface of the chip
Method: (§1) The designed ankyrin repeat proteins: DARPin® protein #20, DARPin® protein #21, DARPin® protein #22, DARPin® protein #27, DARPin® protein #40 and DARPin® protein #41 were tested in a concentration of 0.16 and 64 nM (in a buffer PE140 containing 10 mM Na2HPO4/NaH2PO4, 140 mM NaCl, 0.05% Tween20, 50 μM EDTA, 50 μM EGTA) for binding against two ligands hCD33 and hCD123, which both were immobilized simultaneously to DNA nanolevers, on the surface, at a pre-defined ratio (2:1, CD33:CD123) and 10% density (100:50) on an ADP-48-1-0 chip, where 100% density 1000 receptors/μm2 (preincubated R1-B48-CD123 and G1-A48-CD33 (100 nM) diluted in cNL-48 (dark)). Briefly the following steps were performed: [0724] Conjugation. Amine coupling of the two ligands (CD33 and CD123) to the DNA nanolever (A48, B48, respectively) and purification of the conjugates using the proFIRE® solution (Dynamic Biosensors GmbH) at 25° C. [0725] Evaluation of all the combined affinity and avidity of all different proteins to both ligands attached on the surface of an ADP chip using a DRX+ instrument (dynamic BIOSENSORS). [0726] Statistical analysis (repeatability from 2 to 5 times) including regeneration of the chip surface every concentration analyzed and long dissociation times and data were fitted using a bi-exponential global fit.

[2] = target: T2, hCD123 (recombinant, construct not stated) (human, UniProt P26951 19-305, limits assumed); test: switchSENSE, CD33 and CD123 on one chip; kon to CD123
T2 construct: also called CD123 (Ligand 2)
T2 sequence (looked up): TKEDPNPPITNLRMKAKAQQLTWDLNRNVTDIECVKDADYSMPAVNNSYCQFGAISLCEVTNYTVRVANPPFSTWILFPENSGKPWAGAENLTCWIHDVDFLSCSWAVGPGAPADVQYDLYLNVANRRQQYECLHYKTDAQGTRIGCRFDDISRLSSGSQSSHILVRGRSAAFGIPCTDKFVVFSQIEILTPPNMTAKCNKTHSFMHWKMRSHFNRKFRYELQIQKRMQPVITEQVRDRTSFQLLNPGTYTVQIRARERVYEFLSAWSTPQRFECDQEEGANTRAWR
Method: as §1

[3] = target: T3, hCD33 (recombinant, construct not stated) (human, UniProt P20138 18-259, limits assumed); test: switchSENSE; KD,1 (affinity); KD,1 (affinity), CD33
T3 construct: also called CD33 (Ligand 1)
Method: as §1

[4] = target: T1, hCD33 and hCD123 immobilized …; test: switchSENSE, CD33 and CD123 on one chip; fast phase (affinity)
Method: as §1

[5] = target: T3, hCD33 (recombinant, construct not …); test: switchSENSE, hCD33 and hCD123 co-immobilised 2:1; panel headed CD33, column KD1 (affinity)
Method: as §1

[6] = target: T1, hCD33 and hCD123 immobilized …; test: switchSENSE, CD33 and CD123 on one chip; slow phase (avidity); slow phase (avidity)
[7] = target: T1, hCD33 and hCD123 immobilized …; test: switchSENSE, hCD33 and hCD123 co-immobilised 2:1; panel headed CD123, column KD2 (avidity, simultaneous binding of CD33 and CD123 per paragraph 694)
Method: as §1

[8] = target: T1, hCD33 and hCD123 immobilized …; test: switchSENSE, hCD33 and hCD123 co-immobilised 2:1; panel headed CD33, column KD2 (avidity, simultaneous binding of CD33 and CD123 per paragraph 694)
Method: as §1

[9] = target: T1, hCD33 and hCD123 immobilized …; test: switchSENSE, CD33 and CD123 on one chip; fast phase (affinity); fast phase (affinity)
Method: as §1

[10] = target: T2, hCD123 (recombinant, construct not …); test: switchSENSE; KD,1 (affinity); KD,1 (affinity), CD123
Method: as §1

[11] = target: T2, hCD123 (recombinant, construct not …); test: switchSENSE, hCD33 and hCD123 co-immobilised 2:1; panel headed CD123, column KD1 (affinity)
Method: as §1

[12] = target: T3, hCD33 (recombinant, construct not …); test: switchSENSE, CD33 and CD123 on one chip; kon to CD33
Method: as §1

[13] = target: T3, hCD33 (recombinant, construct not …); test: switchSENSE, CD33 and CD123 on one chip
Method: as §1

[14] = target: T2, hCD123 (recombinant, construct not …); test: switchSENSE, CD33 and CD123 on one chip
Method: as §1

[15] = target: T2, hCD123 (recombinant, construct not …); test: switchSENSE, hCD33 and hCD123 co-immobilised 2:1; panel headed CD123, column KD1; KD2 printed N.A.
Method: as §1

[16] = target: T3, hCD33 (recombinant, construct not …); test: switchSENSE, hCD33 and hCD123 co-immobilised 2:1; panel headed CD33
Method: as §1

[17] = target: T2, hCD123 (recombinant, construct not …); test: switchSENSE, CD33 and CD123 on one chip; monophasic; CD123-only control, monophasic
[18] = target: T4, biotinylated extracellular domain of human CD123 (SEQ ID NO: 88), Fc and Avi tagged (human, UniProt P26951 19-303, biotinylated with BirA-GST (Avi tag)); test: ribosome display selection, crude extract HTRF
T4 construct: also called hCD123
T4 sequence: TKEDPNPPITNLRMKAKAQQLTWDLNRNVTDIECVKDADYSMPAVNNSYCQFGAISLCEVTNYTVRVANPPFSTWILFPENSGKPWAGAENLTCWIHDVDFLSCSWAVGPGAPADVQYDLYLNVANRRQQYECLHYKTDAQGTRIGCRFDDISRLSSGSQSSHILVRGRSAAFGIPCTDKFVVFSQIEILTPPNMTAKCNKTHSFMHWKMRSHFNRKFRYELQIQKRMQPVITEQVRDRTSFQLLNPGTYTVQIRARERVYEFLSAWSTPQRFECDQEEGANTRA

[19] = target: T3, hCD33 (recombinant, construct not …); test: switchSENSE, hCD33 and hCD123 co-immobilised 2:1; panel headed CD33, column KD1; KD2 printed N.A.
Method: as §1

[20] = target: T2, hCD123 (recombinant, construct not …); test: switchSENSE, hCD33 and hCD123 co-immobilised 2:1; panel headed CD123
Method: as §1

[21] = target: T3, hCD33 (recombinant, construct not …); test: switchSENSE, CD33 and CD123 on one chip; monophasic; CD33-only control, monophasic

T1 sequence (P20138 18-259 limits assumed, one chain of several): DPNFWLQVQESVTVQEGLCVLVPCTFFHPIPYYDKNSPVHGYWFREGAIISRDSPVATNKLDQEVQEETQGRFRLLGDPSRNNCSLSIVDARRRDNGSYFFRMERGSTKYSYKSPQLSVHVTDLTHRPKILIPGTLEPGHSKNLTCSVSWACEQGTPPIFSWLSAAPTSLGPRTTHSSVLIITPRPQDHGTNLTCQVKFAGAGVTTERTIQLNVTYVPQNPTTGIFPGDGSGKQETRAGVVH
T3 sequence (P20138 18-259 limits assumed): as the sequence (P20138 18-259 limits assumed, one chain of several) above

B1: DARPin® protein #20 (designed binder)
chain: DLGKKLLEAARAGQDDEVRILMANGADVNALDWLGHTPLHLAAYEGHLEIVEVLLKNGADVNAIDDNNGFTPLHLAAIDGHLEIVEVLLKNGADVNAQDKFGKTAFDISIDNGNEDLAEILQKAAGSPTPTPTTPTPTPTTPTPTPTGSDLGDKLLLAATSGQDDEVRILLAAGADVNAKDYDGDTPLHLAADEGHLEIVEVLLKAGADVNAKDYSGSTPLHAAAAYGHLEIVEVLLKAGADVNAQDVFGYTPADLAAYVGHEDIAEVLQKAAGSPTPTPTTPTPTPTTPTPTPTGSDLGQKLLEAAWAGQDDEVRILLAAGADVNAKNSRGWTPLHTAAQTGHLEIFEVLLKAGADVNAKNDKRVTPLHLAAALGHLEIVEVLLKAGADVNARDSWGTTPADLAAKYGHGDIAEVLQKLA
notes: CD123-CD33-CD3; also called αCD123-αCD33-αCD3_1
koff [1]: ~0.001 s⁻¹ and 0.001 s⁻¹
kon [2]: 7e+06 M⁻¹ s⁻¹
Kd [3]: ~17.6 nM
koff [4]: ~0.01 s⁻¹ and 0.02 s⁻¹
Kd [5]: 18 nM
koff [6]: 0.0015 s⁻¹
Kd [7]: 0.29 nM
Kd [8]: 0.7 nM
koff [9]: 0.03 s⁻¹
Kd [10]: ~4.9 nM
Kd [11]: 4.9 nM
kon [12]: 1.3e+06 M⁻¹ s⁻¹
kon [13]: ~1e+06 M⁻¹ s⁻¹
kon [14]: ~1e+07 M⁻¹ s⁻¹

B4: DARPin® protein #40 (designed binder)
chain: DLGKKLLEAARAGQDDEVRELLKAGADVNAKDKDGYTPLHLAAREGHLEIVEVLLKAGADVNAKDKDGYTPLHLAAREGHLEIVEVLLKAGADVNAQDKSGKTPADLAADAGHEDIAEVLQKAAGSPTPTPTTPTPTPTTPTPTPTGSDLGVKLLLAASRGQLDEVRILLKAGADVNAKDIDEGYTPLHIAAYYGHLEIVEVLLKAGADVNAKDRYGKTPLHLAAISGHLEIVEVLLKAGADVNAQDDKGDTPADLAADYGHQDIAEVLQKAAGSPTPTPTTPTPTPTTPTPTPTGSDLGQKLLEAAWAGQDDEVRELLKAGADVNAKNSRGWTPLHTAAQTGHLEIFEVLLKAGADVNAKDDKGVTPLHLAAALGHLEIVEVLLKAGADVNAQDSWGTTPADLAAKYGHEDIAEVLQKAA
notes: also called Ni2C-αCD33-αCD3
Kd [19]: 7.1 nM
binding result [20]: no binding
koff [21]: 0.01 s⁻¹

Other lines, results leading:

Kd [15]: 4.2 nM
binding result [16]: no binding
koff [17]: 0.06 s⁻¹
B2: DARPin® protein #41 (designed binder)
chain: DLGKKLLEAALEGQLDEVRELLKAGADVNAKDQEGYTPLHLAAALGHLEIVEVLLKAGADVNAKDSIGRTPLHLAAYKGHLEIVEVLLKAGADVNAQDLLGETPADLAAEQGHQDIAEVLQKAAGSPTPTPTTPTPTPTTPTPTPTGSDLGKKLLEAARAGQDDEVRELLKAGADVNAKDKDGYTPLHLAAREGHLEIVEVLLKAGADVNAKDKDGYTPLHLAAREGHLEIVEVLLKAGADVNAQDKSGKTPADLAADAGHEDIAEVLQKAAGSPTPTPTTPTPTPTTPTPTPTGSDLGQKLLEAAWAGQDDEVRELLKAGADVNAKNSRGWTPLHTAAQTGHLEIFEVLLKAGADVNAKDDKGVTPLHLAAALGHLEIVEVLLKAGADVNAQDSWGTTPADLAAKYGHEDIAEVLQKAA
notes: also called αCD123-Ni2C-αCD3

binding result [18]: binds
B3: DARPin® protein #35 (designed binder)
chain: DLGKKLLEAALEGQDDEVRELLKAGADVNAKDQEGYTPLHLAAALGHLEIVEVLLKAGADVNAKDSIGRTPLHLAAYKGHLEIVEVLLKAGADVNAQDLLGETPADLAAEQGHEDIAEVLQKAA
notes: CD123-specific domain; screened as crude extract
